Assay results taken from doi:10.1101/2024.12.23.630100 (bioRxiv, 2024).
Each block holds one binder with its values, some of them ahead of it. Square brackets hold non-standard residues; d marks the D form. Ends that are not written are not given here. pY = N[C@@H](Cc1ccc(OP(=O)(O)O)cc1)C(=O)O

What was measured:
[1] = target: T1, SHP2 C-SH2 domain 102-220 (human, UniProt Q06124 102-220); assay: ITC
T1 sequence (looked up): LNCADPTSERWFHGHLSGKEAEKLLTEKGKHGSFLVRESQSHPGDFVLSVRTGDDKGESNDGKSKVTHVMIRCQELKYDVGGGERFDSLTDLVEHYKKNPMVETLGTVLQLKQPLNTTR

[2] = target: T2, SHP2 tandem domain N-SH2-C-SH2-SHP2 1-222 (human, UniProt Q06124 1-222); assay: ITC
T2 sequence (looked up): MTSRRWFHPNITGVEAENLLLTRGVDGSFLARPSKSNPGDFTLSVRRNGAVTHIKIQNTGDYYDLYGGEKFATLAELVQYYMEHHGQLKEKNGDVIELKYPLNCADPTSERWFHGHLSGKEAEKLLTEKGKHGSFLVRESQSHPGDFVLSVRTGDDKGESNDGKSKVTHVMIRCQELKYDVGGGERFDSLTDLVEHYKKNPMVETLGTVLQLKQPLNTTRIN

Kd [1]: 4 µM
Binder: ERVD[pY]VVVDQQKTLALKSTREAW (peptide, UniProt Q13480 655-677, looked up) [pY659-Gab1 655-677 monophosphorylated peptide]

fold reduction of affinity against pY659-Gab1 655-677 [1]: 10 fold
Binder: ERVD[pY]VVVDQQK (peptide, UniProt Q13480 655-666, looked up) [pY659-Gab1 655-666 monophosphorylated peptide (C-terminally truncated)]

Kd [2]: 0.037 ± 0.013 µM
B1: pY627pY659-Gab1 613-694 (bis-phosphorylated fragment of Grb2-associated binding protein 1) (peptide, UniProt Q13480 613-694, looked up)
chain: SSPMIKPKGDKQVEYLDLDLDSGKSTPPRKQKSSGSGSSVADERVDYVVVDQQKTLALKSTREAWTDGRQSTESETPAKSVK
modifications: phosphotyrosine at 627 and 659
